Patent US10428320B2, “Crystal structure of Staphylococcus aureus Autolysin E, method of producing the crystal and its use in screening methods” (J. Stefan Institute, priority 2015, dated 2019)
Substitutions are numbered along the chain they refer to. Names may count otherwise. “Also recorded” adds a separate entry of the source.

Tests used:
[1] = Digestion of synthetic tetrasaccharide substrate, products analyzed by mass spectroscopy; type: biochemical; settings: mass spectroscopy of degradation products
Description: (§1) • AtlE is 259 amino acid long protein encoded by the SAV2307 gene loci in the genome of S. aureus strain Mu50. The truncated sequences of glucosaminidase domains of AtlE, lacking the first 34 residues and glu AtlA from S1012 onwards, include additional four amino acids (SAAA, i.e. Ser-Ala-Ala-Ala) that belong to the recognition site of TEV protease. The nucleotide sequences were amplified from the genomic DNA of S. aureus Mu50 using KOD Hot Start Polymerase and cloned into pMCSG 7 plasmid in the frame with N-terminal His-Tag as described [Eschenfeldt et al., 2009]. The mutants were prepared by the overlap extension method [Ho et al., 1989]. The proteins were expressed in BL21(DE3) E. coli expression strain grown in YZM5052 auto induction medium. To facilitate the expression of proteins in soluble form, the cells were initially grown at 37° C. When optical density (OD) measured at 600 nm reached the value of 1, the cells were transferred to 25° C. After 16 hours the cells were pelleted by centrifugation (15 minutes at 7000× g), re-suspended in the buffer A ([…] Tris, 0.4 M NaCl, pH 7.5) supplemented with 1 mg/ml of lysozyme, and frozen and disrupted by the freezing thawing cycles and sonication. The proteins were purified from the cell lysate on AKTAxpress FPLC system (GE Healthcare) using two-step purification protocol. […] The degradation products were analyzed by mass spectroscopy. […]

[2] = Digestion of synthetic hexa-NAG substrate, products analyzed by mass spectroscopy; type: biochemical; settings: mass spectroscopy of degradation products
Description: as §1

[3] = system: S. aureus purified peptidoglycan; experiment: Degradation of Remazol Brilliant Blue labeled S. aureus peptidoglycan (cell wall substrate), colorimetric; type: biochemical, Staphylococcus aureus; settings: mutants in comparison with the native enzyme
Description: • AtlE is 259 amino acid long protein encoded by the SAV2307 gene loci in the genome of S. aureus strain Mu50. The truncated sequences of glucosaminidase domains of AtlE, lacking the first 34 residues and glu AtlA from S1012 onwards, include additional four amino acids (SAAA, i.e. Ser-Ala-Ala-Ala) that belong to the recognition site of TEV protease. The nucleotide sequences were amplified from the genomic DNA of S. aureus Mu50 using KOD Hot Start Polymerase and cloned into pMCSG 7 plasmid in the frame with N-terminal His-Tag as described [Eschenfeldt et al., 2009]. The mutants were prepared by the overlap extension method [Ho et al., 1989]. The proteins were expressed in BL21(DE3) E. coli expression strain grown in YZM5052 auto induction medium. To facilitate the expression of proteins in soluble form, the cells were initially grown at 37° C. When optical density (OD) measured at 600 nm reached the value of 1, the cells were transferred to 25° C. After 16 hours the cells were pelleted by centrifugation (15 minutes at 7000× g), re-suspended in the buffer A ([…] Tris, 0.4 M NaCl, pH 7.5) supplemented with 1 mg/ml of lysozyme, and frozen and disrupted by the freezing thawing cycles and sonication. The proteins were purified from the cell lysate on AKTAxpress FPLC system (GE Healthcare) using two-step purification protocol. The first purification step was Ni^2+-affinity chromatography on HiTrap IMAC FF column (GE Healthcare) equilibrated in buffer A with 10 mM imidazole. […] 2. […] The degradation products were analyzed by mass spectroscopy. A single cleavage between the central NAG-NAM residues should indicate the classic N-acetyl-glucosaminidase activity by generating the NAM-NAG and NAM-NAGred disaccharides, whereas NAMred and NAG-NAM-NAGred would indicate the muraminidase activity. […] 3. Isolation of S. aureus Peptidoglycan • S. aureus cells were grown overnight in Brain Hearth Infusion Broth (BHI) (37° C., 250 rpm) pelleted by centrifugation (15 minutes at 6000× g), washed three times with the 30 mM Tris, 0.4 M NaCl buffer and then re-suspended in the same buffer. After heat inactivation, the insoluble pellet was re-suspended in 4% SDS and incubated 30 minutes at 80° C. After 30 minutes of centrifugation at 40,000× g, the pellet was re-suspended and washed six times in water. Proteins that remained associated with the peptidoglycan were digested overnight by incubation with trypsin (1 mg/ml) in 30 mM Tris, 0.4 M NaCl, 10 mM MgCl2, pH 7.5 buffer. After pelleting (30 minutes at 40000× g) peptidoglycan was treated overnight with 5 ml 40% aqueous hydrogen fluoride to remove teichoic acid, pelleted again (30 minutes at 40000× g) and washed extensively with water. Saturated suspension of the pure peptidoglycan solution in water was stored at −20° C. 4. Biochemical Peptidoglycan Degradation and Labeling with Remazol Brilliant Blue • For the colorimetric assays, peptidoglycan was labeled with Remazol Brilliant Blue as described [Odintsov et al., 2004]. In short, 50 ul of water suspension of Remazol Brilliant Blue labeled peptidoglycan was mixed with 10 ul of 1 M buffer solutions at pH of […] of 4 M NaCl, different amounts of enzymes and filled with water to the final volume […]. The final concentration of buffer and NaCl in the reaction mixture was therefore 100 mM.

B1: AtlE: recombinant glucosaminidase domain of Autolysin E of S. aureus Mu50, encoded by SAV2307 (protein)
chain: SAAANDVNYSFDEAVSMQQGKGIVQTKEEDGKFVEANNNEIAKAMTISHKDNDMKYMDITEKVPMSESEVNQLLKGKGILENRGKVFLEAQEKYEVNVIYLVSHALVETGNGKSELAKGIKDGKKRYYNFFGIGAFDSSAVRSGKSYAEKEQWTSPDKAIIGGAKFIRNEYFENNQLNLYQMRWNPENPAQHQYASDIRWADKIAKLMDKSYKQFGIKKDDIRQTYYK
digestion products / specificity on (NAM-NAG)2red [1]: only NAM-NAGred with Mw of 499.21 Da was found
cleavage of (NAG)6 [2]: not degraded at all; also recorded: cannot

B2: E138A (protein)
chain: MKKNFKLRISTLLLIVILVVFAVLLIVNETKLFKNDVNYSFDEAVSMQQGKGIVQTKEEDGKFVEANNNEIAKAMTISHKDNDMKYMDITEKVPMSESEVNQLLKGKGILENRGKVFLEAQEKYEVNVIYLVSHALVATGNGKSELAKGIKDGKKRYYNFFGIGAFDSSAVRSGKSYAEKEQWTSPDKAIIGGAKFIRNEYFENNQLNLYQMRWNPENPAQHQYASDIRWADKIAKLMDKSYKQFGIKKDDIRQTYYK
activity against the cell wall substrate (S. aureus peptidoglycan) [3]: abolished activity
activity against the cell wall substrate (S. aureus peptidoglycan) ([3]; listed as E138): zero activity

B3: E145A (protein)
chain: B2 chain with A138E, E145A
activity against the cell wall substrate (S. aureus peptidoglycan) [3]: activity of native enzyme; also recorded: activity equivalent to the native enzyme

B4: D167A (protein)
chain: B2 chain with A138E, D167A
activity against the cell wall substrate (S. aureus peptidoglycan) [3]: halved activity

B5: D227A (protein)
chain: B2 chain with A138E, D227A
activity against the cell wall substrate (S. aureus peptidoglycan) [3]: halved activity

B6: Y201A (protein)
chain: B2 chain with A138E, Y201A
activity against the cell wall substrate (S. aureus peptidoglycan) [3]: completely inactive
activity against the cell wall substrate (S. aureus peptidoglycan) ([3]; listed as Y201): zero activity; also recorded: abolished the enzymatic activity
